This data set deals with the molecule itself. Put plainly: non-reducing SDS-PAGE with immunoblot; 0.5 uM purified His-ALAD preincubated in PBS, untreated or oxidized (1 mM H2O2); non-reducing 10% SDS polyacrylamide gel; anti-His blot.

B1: recombinant His-tagged ALAD (ALAD1 without the predicted transit peptide) (enzyme, Arabidopsis thaliana, UniProt Q9SFH9 53-430, looked up)
chain: ASESGNGHAKKLGMSDAECEAAVAAGNVPEAPPVPPKPAAPVGTPIIKPLNLSRRPRRNRASPVTRAAFQETDISPANFVYPLFIHEGEEDTPIGAMPGCYRLGWRHGLVQEVAKARAVGVNSIVLFPKVPEALKNSTGDEAYNDNGLVPRTIRLLKDKYPDLIIYTDVALDPYSSDGHDGIVREDGVIMNDETVHQLCKQAVSQARAGADVVSPSDMMDGRVGAIRSALDAEGFQNVSIMSYTAKYASSFYGPFREALDSNPRFGDKKTYQMNPANYREALIEAREDEAEGADILLVKPGLPYLDIIRLLRDKSPLPIAAYQVSGEYSMIKAGGVLKMIDEEKVMMESLMCLRRAGADIILTYFALQAATCLCGEKR
notes: Arabidopsis thaliana ALAD1 (HEMB1; AT1G69740) without the predicted transit peptide (ChloroP); also called recombinant ALAD; purified ALAD; source: E. coli Rosetta(DE3), pET28a, purified (Ni-NTA agarose); not shown: His6, N-terminal, kept
Regarding B1, the binding result is reported as “binds”.
